Assay results: the nanobody polyreactivity screen of Harvey et al. (2022)

Test: yeast display, Sf9 membrane polyspecificity reagent, FACS + sequencing; frameworks hold sequencing errors
How it was run: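 In a synthetic yeast display library (Saccharomyces cerevisiae BJ5465), nanobody expression was induced with galactose for 36–48 hours. FACS gates were set low and high (top ~1%) using anti-HA fluorescence for expression and streptavidin fluorescence for binding of the Sf9 membrane reagent. Each polyreactivity label is drawn from the gate of origin.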

Sequence	polyreactivity (PSR sort gate)
QVQLVESGGGLVQAGGSLRLSCAASGRTFAIYAMGWYRQAPGKERELVAVINYSGDRTYYADSVKGRFTISRDNAKNTVYLQMNSLKPEDTAVYYCAAVLEYTSDYLSGENDYWGQGTQVTVSS	low polyreactivity
QVQLVESGGGLVQAGGILRLSCAASGRIFKDNAMGWYRLAPGKERELVATIDSGGDTNYADSVKGRFTISRDNAKNTVYLQMNSLKPEDTAVYYSNTEGFLSAVYAFGYWGQGTQVTVSS	low polyreactivity
QVQLVESGGGLVQAGGSLSLSCSASGSIFAGYARGWYRQAPGKERELVAAISVSGGGTYYADSVKGRFTISRDNAKNTVYLQMNSLKPEDTAVYYCAATGSSRYGRNYYSWGQGTQVTVSS	high polyreactivity
QVQLVESGGGLVQAGGSLRLSCAASGRTFPYYAMGWYRQAPGKERELVAAISSSGGSTYYADSVKARFTISGDNAKNTVYLQMNSLKPEDTAVYDCTRYSRLYLTDDDYWGQGTQVTVSS	high polyreactivity
QVQLVESGGGLVQAGGSLSLSCAASGSIFPRYTMGSYRQAPGKERELVAAISRSGGSTYYADSVKGRFTISRDNAKNTVYLQMNSLKPADTAVYYCDKSRPSKYDYWGQGTQVTVSS	high polyreactivity
QVQLVESGGGLVQAGGSLRLSCAASGSTFATYAMGWYRQAPGKERELVAAIRVSGGTTYADSVKGRFTISRDNAKNTVYLQMNSLKPEDNAVYYCAATGWEVYDIFDYWVQGTQVTVSS	low polyreactivity
QVQLVESGGGIVQAGGSLRLSCAASGRTFPGYAMGWSRQAPGKERELVATITFSDGSTYYADSVKGRFTISRDNAKNTVYLQMNSLKPEDTAVYYCNARRSYFLRYGVNYWGQGTQVTVSS	low polyreactivity
QVQLVESGGGLVQAGGSLRLSCAASGSTFGWYTMGWYRQAPGKERELVAAINYSGGSTYYADSVKGRFTISRDNAKNTVYLQMISLKPEDTAVYYCAADGTWSIYGGLYYWGQGTQVTVSS	low polyreactivity
QVQLVESGGGLVQAGGRLLLSCAASGFTFPRYVMGWYRQAPGKEREFVAAITFSGGSTYYADSVKGRFTISRDNAKNSVYLQMNSLKPEDTAVYYCAAGASLWRLGLKMGYWGQGTQVTVSS	low polyreactivity
QVQLVESGGGLVQAGGSLRLSCAASGLTFGHYAMGWYRQAPGKERELVATISSRGVSTRYADSVKGRFTISRDNAKNTVYLQMNSLKPEDTAVYYCNARDYTWGKYYSSKIGYYYWGQGTQVTVSS	high polyreactivity
QVQIVESGGGLVQAGGSLRLSCAASGSIFGTYAMGRYRQAPGKERELVAAINSGDSTYYADSVKGRFTISRDNAKNTVYLQMNSLKPEDTAVYYCGARETYWSGYFIYYYWGQGTQVNVSS	high polyreactivity
QVQLVESGGGLVQAGGSLRLSCAASGSTFYINAMGWYRQAPGKERELVADITVRGGNTYYADSVKGRFTISRDNAKNTVYLQMNSLKPEDTAVYYCNALLSGGRAGFDYWGQVTQVTVSS	high polyreactivity
QLQLEESGGGLVQAGGSLSLRCAASGRIFSRYPMGWYRQAPGKERELVAAISSRAGSTYYADSVKGRFTISRDNAKNTVYLQMNSLKPEDTAVYYCNNPSYSCSSPYDHWGQGTQVTVSS	high polyreactivity
QVQLVESGGGLVQAGGSLRLSCAASGRIFTRNGMGWYRQAPGKERELVAASTRGGRTNYADSVKGRFTISRDNAKNTVYLQMNSLKPEDTAVYYCAAGFPWSYYGSYDYWGQGTQVTVSS	high polyreactivity
QVQLVESGGGLFQAGGSLRFSCAASGIIFSTNAMGWYRQAPGKERELVATITSSSGRTYYADSVKGRFTISRDNAKNTLYLQMNSLKPEDTAVYYCATGGVLIKGHYYWGQGTQVTVSS	low polyreactivity
QVQLVESGGGLVQAGGSLRLICAASGSTFEQYAMGWYRQAPGKERELVAAINRGGSTYYADSVKGRFTISRDNAKNTVYLQMNSLKPEDTAVYYCAVYAFVRYRSRYGYWGQGTQVTVSS	high polyreactivity
QVQLVESGGGLVQAGGSLRLSCAASGLTFWSYAMGWYRQAPGKERELVAAISKRGGSTYYADSVKGRFTISRDNAKNTVYLQMNSLKPEDTAVYYCAARTFRALNKYYYWGQGTQVTVSS	high polyreactivity
QVQLVESGGGLVQAGGSLRLSCAASGSTFAIYPMGWYRPAPGKERELVAAITRSGGNTYYADSVKGRFTISRDNAKNTVYLQMNSLKPEDTAVYYCNAETYYWSAYAQYEYWGQGTQVTVSS	high polyreactivity
QVQLVESAGGLVQAGGSLRLSCAASGSTFPWNAMGWDRQAPGKERELVAAISKSGGRTYYADSVKGRFTISRDNAKNTVYLQMNSLKPVDTAVYYCAKRYALSVYYRLYDYWGQGTQVTVSS	high polyreactivity
QVQLVESGGGLVQAGGSLRLSCAASGRIFYYYGMGWYRQAPGKERELVAAISNGGRTYYADSVKGRFTISRDNAKNTVYLQMNSLKPEDTAVDYCAALTRGRGGYDYWGQGTQVTVSS	high polyreactivity
QVQLVESGGGLVQAGGSLRLSCAASGLTFRWYAMGWYRQEPGKERELVAAISSSGNTNYADSVKGRFTISRDNAKNTVYLQMNSLKPGDSAVYYCAASYYSYPPGLSQTRLTYYYWGQGTQLTVSS	high polyreactivity

Sequence	polyreactivity (PSR sort gate)
QVQLVESGVGLVQAGGSLRLSCADSGLILSKYAKVWYRPAPGKEREFVAAITQTGSRTYYADSVKGRFTSSRDNAKNTVYLQMNSLKPEDTAVYYCNAVNYRSSRDSGYWGQGTQVTVSS	high polyreactivity
QVQLVESGGGLDQAGGSLRLSCAASGFIFYYYAMGWYRQAPGKEREFVAGISRRGGSSYYADSVKGRFTISRDNAKNTVYLQMNSLKPEDTAVYYCIVDFHWQRFHHKSAAYDYWGQGTQVTVSS	high polyreactivity
HVQLVESGGGLVQAGGSLRLSCAASGLTYPRYTMGWYRQAPGKESELVAAISSSTGTTNYADSVKGRFTISRDNAKINVYLQMYSLKPEDTAVYYCAAGGSLYAYGYRSRYGYWGQGTQVTVSS	low polyreactivity
QVQLVESGGGLVQAGGSLRLSCAASGRTFYYYAMGWYRQAHGKERELVAAISTNGGSTYYADSVKGRFTISRDNAKNTVYLQMNSLKPEDTAVYYCNTYAKPHRSGGGLGGHYYWGQGTQVTLSS	low polyreactivity
QVQHVESGGGLVQAGGSLRLSCAASGRTFRYNAMGWSRQAPGKERELVAAISSGDRTNYADSVKGRFTISRDNAKYTVYLQMYSLKPEDTAVYYCAAQTDSYYDFDYWGQGTQVTVSS	low polyreactivity
QVQLVESGGGLVQAGGSLRLSCAASGSTFDSYAMGWYRQAPGKERELVAAISRSGGRTYYADSVKGRFTISRDNAKNTVYLQMNSLKPEDTAVYYCAAPVKVGHSLSGGDYWGQGTQVTVSS	high polyreactivity
QVQLEESWGGLVQAGGSLRLICAASGSIFSYYAMGWYRQAPGKERELVAVITSGGSTYYADSVKGRFTISRDNAKNTVYLQMNSLKPEDTAVYYCAVKYPELRTWGYYYWGQGTQVTVSS	high polyreactivity
QVQLVESGGGLVQAGGSLRLSCAASGRTFAFYAMGWYRQAPGKERELVAVITKSGGITYYADSVKGRFTISRDNAKNTVYLQMKSLKPEDTAVYYCAADYRYTPNYLYYYWGQGTQVTVSS	low polyreactivity
QVQLVESGAGLVQAGGSLRLSCAASGSIFFSYAMGWSRQAPGKERELVAGINWSGGSTYADSVKGRFTISRDNAKNTVYLQMNSLKPEDTAVYYCAAKYYSERSRYHYWGQGTQVTVSS	low polyreactivity
QVQLVESGGGLVQAGGSLRLSCAASGFIFDRYAMGWYRQAPGKERELVAAIDTASSTNYADSVKGRFTISRDNAKNTVDLQMNSLKPEDTAVYYCNASGYYYVIYWKVSNYNYWGQGTQVTVSS	low polyreactivity
QVQLVESGGGLVQAGGRLRLSCAASGRIFKTNAMGWYRQAPGKERELVPAISKRGGRTYYADSVKGRFTISRDNAKNTVYLQMNSLKPEDTAVYYCATRYSGYSLGDYWGQGTQVTVSS	high polyreactivity
QVQLVESGGGLVQAGGSLRLSCASSGFTFDPYAMGWYRQAPGKERELVAAISWSGGSTYYADSVKGRFTISRDNAKNTVYLQMNSLKPEDTAVYYCAAEWYNSAYYEYDYWGQGTQVTVSS	high polyreactivity
QVQLVESGGGLVQAGGRLRLSCAASGSILGEYAMGLNRQANGKERELVAAISVGGCSTYYADSVKGRFTISRDNAKNTVYLQMNSLKPVDTAVYYCSAYDYQSEMYYWGQGTQVTVSS	high polyreactivity
QVQRVESGGGLVQAGGSLRLSSAASGSIFFDYAMRGYRQAPGNERELVAAISGSGGSRYYADSVKGRFTISRDNAKNTVYLQMNSLIPEDTAVYYCAAGYKYFRIRYDYWGQGTQVTVSS	high polyreactivity
QVQLVESGGGLVQAGGSLRLSCAASGRIFYSYAMGWYIPAPGKERELVAAITVSGGSTFYADSVKGRFTISRDNAKNTVYLQMNSLKPEDTAVYYCAAQSTTIEDGWYVEYNYWGQGTQVTVSS	high polyreactivity
QVQLVESVGGLVQAGGILRLSCAASGSTFLDNAMGLYRQAPGKERELVAAITQSGSSTYYADSVKGRFTISRDNAKNTVYLQMNSLKPEDTAVYYCAADVPIISFDYWGQGTQVTVSS	low polyreactivity
QVQLVESVGGLVQAGGSLRLSCAASGSIFKSYAMGWYRQAPGKERELVAAITYRGGSTYYADSVKGRFTISRDNAKNTVYLQMNSLKPEDTAVYYCAKDQHRYYQVWGDYWGQGTQVTVSS	high polyreactivity
QVQLQESGGGLVQAGGSLRLSCAASGIIFDNPNMGWYRQAPGKQRELVATINSGATTNYADSVKGRFTISRDNAKNTVYLLMNSLIPEDTAVYYCAVDLSPTYFYYWGQGTQVTVSS	high polyreactivity
QVQLVESGGGLVQAGGSLRLSCAAAGIIFISYDMGWYRPAPGKDRELVARINWDGGSTYYADSVKGRFTISRDKAKHTFYLQTNTLKPEDTAVSYCAAGFVGTNYPLQGFSYEYWGPGTQVTVSS	low polyreactivity
QVQLQESGGGLVHAGGILRLSCAASGTISFINMKGWYGQAPGRERELVASINFGANTHYADSVKGRFTIRRDNAKNTVYLQMNSLKPEDTAVSYCAARKVRFGVDYWGQGTQVTVSS	high polyreactivity
